For one substance, decrease of binding against unmodified CA1.CD2 results are on record in US20180250426A1.

In the test the target is CA1.CD2-P40 (CA1.CD2 PEGylated with P40) (rat) (UniProt P08921). Put plainly: Western blot, CA1.CD2 PEGylated with P40. A general note: In western blotting, separated proteins are transferred to a membrane and probed.
Chain of CA1.CD2-P40 (CA1.CD2 PEGylated with P40) (rat) (P08921 23-121 limits assumed): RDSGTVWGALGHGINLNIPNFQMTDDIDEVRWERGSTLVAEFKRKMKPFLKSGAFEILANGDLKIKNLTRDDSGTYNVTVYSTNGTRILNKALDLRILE

For OX34 antibody, the decrease of binding against unmodified CA1.CD2 came to 50%.
